Assays:
[1] = molecular target: T1, human CD40 on Ramos cells (human, UniProt P25942 21-277); assay: flow cytometry on Ramos cells, detection with goat F(ab')2 anti-human IgG R-PE [A]
T1 construct: Native CD40 of Ramos cells (Burkitt's lymphoma)
Procedure: (§1) Ramos cells were suspended in Staining Buffer (SB) that is D-PBS(−) containing 0.1% NaN₃ and 1% FBS at a cell density of 1×10⁶ cells/mL, and the suspension was dispensed in a 96-well round bottom plate (manufactured by Falcon, Inc.) at 100 μL/well.
(§2) After further centrifugation (2000 rpm, 4° C., 2 minutes), the supernatant was removed, the resulting pellet was washed three times with 200 μL/well of SB, and thereafter, 1 μg/mL of Goat F(ab′)₂ Anti-Human IgG (γ chain specific) R-phycoerythrin (R-PE) Conjugate (manufactured by Southern Biotech, Inc.) was added at 50 μL/well, and the resultant was incubated for 30 minutes at ice temperature. After washing twice with SB, the cells were suspended in 200 μL/well of SB, and the fluorescence intensity of each cell was measured using a flow cytometer FACSCANTO II (manufactured by Becton, Dickinson and Company).

[2] = molecular target: T2, human EpCAM on human EpCAM/HEK 293 cells and Colo 205 cells (human, UniProt P16422 24-314); assay: flow cytometry on Colo 205 cells and on human EpCAM/HEK 293 cells, antibody at 10 ug/mL, detection with goat F(ab')2 anti-human IgG R-PE [B), (D]
T2 construct: Colo 205 cells carry native EpCAM; also called hEpCAM
T2 sequence: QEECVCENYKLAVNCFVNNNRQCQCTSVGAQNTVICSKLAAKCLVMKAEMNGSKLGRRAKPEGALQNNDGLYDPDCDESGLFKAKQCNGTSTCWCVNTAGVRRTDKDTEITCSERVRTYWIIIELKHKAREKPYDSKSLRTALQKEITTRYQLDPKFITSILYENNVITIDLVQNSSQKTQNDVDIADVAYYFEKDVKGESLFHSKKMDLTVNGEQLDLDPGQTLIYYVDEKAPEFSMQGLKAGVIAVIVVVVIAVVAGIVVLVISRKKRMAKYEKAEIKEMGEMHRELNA
Procedure: as §1, §2
(§3) Similarly, Colo 205 cells, HEK 293 cells, and human EpCAM/HEK 293 cells were evaluated, respectively. As the negative control, IgG4 antibodies 5228P, L235E, and R409K mutants (hereinafter referred to as anti-DNP antibodies) produced according to the method described in Example 5 of WO 2006/033386 using a vector encoding VL and VH (GenBank accession No. VL U16688, VH U116687) of the 2,4-dinitrophenol (DNP) antibody described in Mol Immunol. 1996 June; 33 (9): 759-68 were used.

[3] = molecular target: T3, mouse CD40 (mouse, UniProt P27512 20-193, limits assumed); assay: not described
T3 sequence (looked up): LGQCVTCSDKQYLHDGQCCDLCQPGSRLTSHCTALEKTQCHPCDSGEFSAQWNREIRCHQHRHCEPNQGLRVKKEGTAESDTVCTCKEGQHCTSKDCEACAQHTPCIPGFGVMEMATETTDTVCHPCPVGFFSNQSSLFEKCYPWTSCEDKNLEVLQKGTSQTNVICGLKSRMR

[4] = molecular target: T2, human EpCAM on human EpCAM/HEK 293 …; assay: flow cytometry on Colo 205 cells and on human EpCAM/HEK 293 cells, detection with goat F(ab')2 anti-human IgG R-PE [B), (D]
Procedure: as §1, §2, §3

[5] = molecular target: T4, human CD40-GST (human, UniProt P25942 21-193); assay: phage ELISA on immobilized CD40-GST
T4 construct: also called soluble human CD40 antigen; not shown: GST region of the N5 vector
Procedure: (§4) In the ELISA, MAXISORP (manufactured by NUNC, Inc.) in which the human or monkey CD40-GST in Example 1 was immobilized on each well and a portion to which the human or monkey CD40-GST is not bound was blocked using SuperBlock Blockig Buffer (manufactured by Thermo Fisher, Inc.) was used. To each well, each phage clone was added and reacted at room temperature for 30 minutes, and thereafter, each well was washed 3 times with PBS-T.
(§5) Subsequently, an anti-M13 antibody (manufactured by GE Healthcare, Inc.) labeled with horseradish peroxidase was diluted by 5000 times with PBS-T containing 10% Block Ace (manufactured by Dainippon Pharmaceutical Co., Ltd.), and the resultant was added in an amount of 50 μL to each well, and incubated at room temperature for 30 minutes. After the microplate was washed four times with PBS-T, a TMB chromogenic substrate solution (manufactured by DAKO, Inc.) was added in an amount of 50 μL to each well and incubated at room temperature for 10 minutes.

[6] = molecular target: T5, monkey CD40-GST (monkey, UniProt P25942 21-193 (human entry)); assay: phage ELISA on immobilized CD40-GST
T5 construct: not shown: GST region of the N5 vector
T5 chain: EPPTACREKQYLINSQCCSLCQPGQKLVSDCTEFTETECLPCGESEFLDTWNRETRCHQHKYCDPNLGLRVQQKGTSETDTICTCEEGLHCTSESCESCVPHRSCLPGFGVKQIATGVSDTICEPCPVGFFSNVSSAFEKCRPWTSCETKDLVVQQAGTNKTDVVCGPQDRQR
Procedure: as §4, §5

[7] = molecular target: T6, human EpCAM-GST (human, UniProt P16422 24-265); assay: phage ELISA on immobilized EpCAM-GST
T6 construct: also called soluble human EpCAM antigen; not shown: GST added to the C terminus (N5 vector)
T6 sequence: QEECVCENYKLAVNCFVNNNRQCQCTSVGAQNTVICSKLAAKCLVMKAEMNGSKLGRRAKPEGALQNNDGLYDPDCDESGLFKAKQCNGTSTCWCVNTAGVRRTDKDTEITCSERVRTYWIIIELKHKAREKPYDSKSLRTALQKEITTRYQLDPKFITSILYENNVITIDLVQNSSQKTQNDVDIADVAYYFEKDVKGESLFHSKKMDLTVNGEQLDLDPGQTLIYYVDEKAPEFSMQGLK

[8] = molecular target: T7, monkey EpCAM-GST (monkey, UniProt Q1WER1 24-265); assay: phage ELISA on immobilized EpCAM-GST
T7 construct: not shown: GST added to the C terminus (N5 vector)
T7 sequence: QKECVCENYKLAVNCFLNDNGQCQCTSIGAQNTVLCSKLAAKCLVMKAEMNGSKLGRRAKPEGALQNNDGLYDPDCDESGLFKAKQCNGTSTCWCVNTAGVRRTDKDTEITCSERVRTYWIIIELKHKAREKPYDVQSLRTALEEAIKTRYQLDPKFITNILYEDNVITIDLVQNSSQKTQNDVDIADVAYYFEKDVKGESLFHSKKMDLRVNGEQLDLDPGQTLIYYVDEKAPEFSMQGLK

[9] = molecular target: T8, mouse EpCAM-GST (mouse, UniProt Q99JW5 24-266); assay: phage ELISA on immobilized EpCAM-GST
T8 construct: not shown: GST added to the C terminus (N5 vector)
T8 sequence: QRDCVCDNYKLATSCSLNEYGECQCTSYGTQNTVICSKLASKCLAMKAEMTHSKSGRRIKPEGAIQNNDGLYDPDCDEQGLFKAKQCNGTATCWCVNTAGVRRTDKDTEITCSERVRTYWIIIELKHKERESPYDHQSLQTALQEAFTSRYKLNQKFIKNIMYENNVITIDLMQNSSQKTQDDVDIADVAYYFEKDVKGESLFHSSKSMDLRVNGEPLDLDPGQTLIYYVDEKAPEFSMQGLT

B1: anti-EpCAM monoclonal antibody 3622W94 (antibody, V domains shown)
VH: QVQLVQSGPEVKKPGASVKVSCKASGYTFTNYGMNWVRQAPGQGLEWMGWINTYTGEPTYGEDFKGRFAFSLDTSASTAYMELSSLRSEDTAVYFCARFGNYVDYWGQGSLVTVSS
VL: DIVMTQSPLSLPVTPGEPASISCRSSKNLLHSNGITYLYWYLQKPGQSPQLLIYQMSNLASGVPDRFSSSGSGTDFTLKISRVEAEDVGVYYCAQNLEIPRTFGQGTKVEIK
binding result [1]: no binding (tested: 10 ug/mL) | binding result [2]: binds

B2: anti-CD40 monoclonal antibody 21.4.1 (antibody, V domains shown)
VH: not shown
VL: DIQMTQSPSSVSASVGDRVTITCRASQGIYSWLAWYQQKPGKAPNLLIYTASTLQSGVPSRFSGSGSGTDFTLTISSLQPEDFATYYCQQANIFPLTFGGGTKVQIK
notes: also called anti-CD40 agonistic antibody; CP870,893
binding result [3]: no binding | binding result [4]: no binding (tested: 10 ug/mL)

B3: R1066 phage clone (scFv, V domains shown)
VH: QVQLQQWGAGLLKPSETLSLTCAVYGGSFSGYYWSWIRQPPGKGLEWIGEINHGGITHYNPSLKSRVTISVDTSKNQFSLKLSSVTAADTAVYYCARDNYYGSGSYYKYDYYGMDVWGQGTTVTVSS
VL: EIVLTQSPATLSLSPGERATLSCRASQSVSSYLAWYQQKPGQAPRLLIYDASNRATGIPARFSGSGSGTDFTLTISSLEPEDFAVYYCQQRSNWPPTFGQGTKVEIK
binding result [5]: binds | binding result [6]: binds

B4: Ep203 phage clone (scFv, V domains shown)
VH: EVQLVQSGAEVKKPGASVKVSCKASGFTFSSYYMHWVRQAPGQGLEWMGIVNPTGGATSYAQKFQGRVTMTRDTSTSTVYMELSSLRSEDTAVYYCAKHGYGASTLFDSWGQGTLVTVSS
VL: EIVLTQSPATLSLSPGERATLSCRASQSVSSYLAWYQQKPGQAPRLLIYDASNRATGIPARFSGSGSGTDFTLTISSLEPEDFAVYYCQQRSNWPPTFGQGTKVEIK
binding result [7]: binds | binding result [8]: binds | binding result [9]: binds

B5: Epc051 phage clone (scFv, V domains shown)
VH: EVQLVQSGAEVKKPGASVKVSCKASGYTFTSNYMHWVRQAPGQGLEWMGIINPSGGATSYAQKFQGRVTMTRDTSTSTVYMELSSLRSEDTAVYYCASGGYYGSVIMDVWGQGTLVTVSS
VL: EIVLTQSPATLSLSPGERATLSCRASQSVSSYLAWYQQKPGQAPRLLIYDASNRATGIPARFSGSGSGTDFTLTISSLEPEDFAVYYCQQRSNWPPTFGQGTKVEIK
binding result [7]: binds | binding result [8]: binds | binding result [9]: binds

B6: Epc112 phage clone (scFv, V domains shown)
VH: EVQLVQSGTEVKKPGASVKVSCRASGNTFTNYYIHWVRQAPGQGLEWMGIINPSGGATNYAQILQGRVTMTRDTSTSTVYMELSSLRSEDTAVYYCAGGGSAATFAYWGQGTLVTVSS
VL: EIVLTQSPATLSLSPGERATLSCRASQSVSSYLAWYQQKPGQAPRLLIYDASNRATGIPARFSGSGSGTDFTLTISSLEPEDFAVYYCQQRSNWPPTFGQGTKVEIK
binding result [7]: binds | binding result [8]: binds | binding result [9]: binds

B7: R2089 phage clone (scFv, V domains shown)
VH: EVQLVQSGAEVKKPGASVKVSCKASGYSFTRYIMHWVRQAPGQRLEWMGWINAGNGNTKYSQKFQGRVTITRDTSANTAYMELSSLRSEDTAVYYCARDEPVAGSFFDYWGQGTLVTVSS
VL: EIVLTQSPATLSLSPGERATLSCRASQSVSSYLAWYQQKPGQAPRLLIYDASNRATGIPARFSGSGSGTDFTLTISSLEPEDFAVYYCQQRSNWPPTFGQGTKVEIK
binding result [5]: binds | binding result [6]: binds

B8: R2178 phage clone (scFv, V domains shown)
VH: QVQLQQWGAGLLKPSETLSLTCAVYGGSFSGYYWSWIRQSPGKGLEWIGEINHGGITNYNPSLKSRVTISVDTSKNQFSLKLGSVTAADTAVYYCARDNYYGSGSNDGVYQYYGIDVWGQGTTVTVSS
VL: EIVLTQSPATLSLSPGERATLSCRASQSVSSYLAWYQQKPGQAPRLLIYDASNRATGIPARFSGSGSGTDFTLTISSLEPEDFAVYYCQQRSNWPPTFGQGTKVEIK
binding result [5]: binds | binding result [6]: binds

From US20240059788A1 (Kyowa Kirin, published 2024)
